Measurements from US20090180995A1 (NATIONAL UNIVERSITY OF SINGAPORE, published 2009).

T1: hemextin B (Hemachatus haemachatus (African …))
T1 construct: also called peak B
T1 chain: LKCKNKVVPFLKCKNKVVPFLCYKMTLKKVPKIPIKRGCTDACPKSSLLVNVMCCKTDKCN


Tests used:
TF-FVIIa complex = TF-FVIIa complex (human, UniProt P08709 61-466; P13726 33-295); test: cell-based or functional assay
plasma kallikrein = test: cell-based or functional assay
hemextin B = molecular target: T1, hemextin B; test: ITC in phosphate, MOPS and Tris buffers at pH 7.4

Sequence of TF-FVIIa complex (P08709 61-466 limits assumed, chain 1 of 2): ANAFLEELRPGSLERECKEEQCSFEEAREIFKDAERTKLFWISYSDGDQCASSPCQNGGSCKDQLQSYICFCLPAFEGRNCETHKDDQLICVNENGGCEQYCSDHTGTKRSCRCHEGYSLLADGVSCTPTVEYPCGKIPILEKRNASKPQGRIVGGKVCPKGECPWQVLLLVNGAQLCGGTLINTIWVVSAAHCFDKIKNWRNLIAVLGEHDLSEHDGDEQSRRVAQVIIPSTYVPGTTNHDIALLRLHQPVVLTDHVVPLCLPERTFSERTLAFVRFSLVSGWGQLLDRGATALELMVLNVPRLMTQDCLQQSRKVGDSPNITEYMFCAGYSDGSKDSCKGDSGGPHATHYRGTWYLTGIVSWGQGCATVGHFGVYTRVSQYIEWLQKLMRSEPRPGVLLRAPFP
Sequence of TF-FVIIa complex (P13726 33-295 limits assumed, chain 2 of 2): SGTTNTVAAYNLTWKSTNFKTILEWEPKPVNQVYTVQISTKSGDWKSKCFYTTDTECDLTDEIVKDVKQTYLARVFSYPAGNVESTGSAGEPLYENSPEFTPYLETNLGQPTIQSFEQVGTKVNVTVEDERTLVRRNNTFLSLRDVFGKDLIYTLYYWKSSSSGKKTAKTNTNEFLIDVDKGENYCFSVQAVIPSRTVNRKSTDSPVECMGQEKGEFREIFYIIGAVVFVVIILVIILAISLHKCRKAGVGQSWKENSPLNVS

Row | Binder | IC50, inhibition of extrinsic tenase activity (FXa formation) (TF-FVIIa complex) | IC50, inhibition of plasma kallikrein amidolytic activity (plasma kallikrein) | ΔHbin (binding enthalpy corrected for protonation) (hemextin B)
1 | hemextin AB complex (other) chain 1: LKCKNKLVPFLSKTCPEGKNLCYKMTMLKMPKIPIKRGCTDACPKSSLLVKVVCCNKDKCN chain 2: LKCKNKVVPFLKCKNKVVPFLCYKMTLKKVPKIPIKRGCTDACPKSSLLVNVMCCKTDKCN | 100 nM | ~5000 nM | –
2 | hemextin A (other, also called peak A) LKCKNKLVPFLSKTCPEGKNLCYKMTMLKMPKIPIKRGCTDACPKSSLLVKVVCCNKDKCN | – | – | -3.64 kcal/mol
